Substrate: C[C@H](O)C(=O)O
Assay: cells, lysate or membranes
Settings: proton

B1: Monocarboxylate transporter 1 (MCT1) (Mus musculus) (protein)
chain: MPPAIGGPVGYTPPDGGWGWAVLVGAFISIGFSYAFPKSITVFFKEIEVIFSATTSEVSWISSIMLAVMYAGGPISSILVNKYGSRPVMIAGGCLSGCGLIAASFCNTVQELYLCIGVIGGLGLAFNLNPALTMIGKYFYKKRPLANGLAMAGSPVFLSTLAPLNQAFFDIFDWRGSFLILGGLLLNCCVAGSLMRPIGPEQVKLEKLKSKESLQEAGKSDANTDLIGGSPKGEKLSVFQTINKFLDLSLFTHRGFLLYLSGNVVMFFGLFTPLVFLSSYGKSKDFSSEKSAFLLSILAFVDMVARPSMGLAANTKWIRPRIQYFFAASVVANGVCHLLAPLSTTYVGFCVYAGVFGFAFGWLSSVLFETLMDLIGPQRFSSAVGLVTIVECCPVLLGPPLLGRLNDMYGDYKYTYWACGVILIIAGIYLFIGMGINYRLLAKEQKAEEKQKREGKEDEASTDVDEKPKETMKAAQSPQQHSSGDPTEEESPV
Km: 3.88 ± 0.86 mM
Vmax: 0.414 µmol/min/mg
